Results from patent publication US20110129458A1 (Ablynx, published 2011).
Blank lines part the entries; values can stand above or below the binder they belong to.

Assays:
[1] = target: T1, rhPDL2-Fc: fusion protein of the extracellular part of human PD-L2 and mouse Fc gamma 1, R&D Systems Cat … (human; mouse, UniProt Q9BQ51 20-220); experiment: ELISA, Nanobody dilution series 1-3125 nM on coated PDL2/hFc, rabbit anti-VHH detection, OD 490 nm (Example 10)
T1 construct: extracellular domain; Bought product, made in NS0 cells; also called PD-L2 ectodomain; PDL2/hFc
T1 sequence (looked up): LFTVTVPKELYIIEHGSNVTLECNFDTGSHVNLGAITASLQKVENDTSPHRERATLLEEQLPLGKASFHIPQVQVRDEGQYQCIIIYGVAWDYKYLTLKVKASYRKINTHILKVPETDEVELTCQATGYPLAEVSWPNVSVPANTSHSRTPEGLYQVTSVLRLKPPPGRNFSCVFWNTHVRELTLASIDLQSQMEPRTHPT
Experimental: (§1) In order to check for bispecific binding, the clones selected and screened for B7-H1 binding were tested for binding PD-L2 in an ELISA setup. In short, plates were coated with 100 μl (2 μg/ml) of PDL2/hFc (R&D Systems, Minneapolis, US, Cat #1224-PL) in PBS overnight at 4C. After washing, plates were blocked with 4% MPBS for 2 hours on a shaker, A dilution series of Nanobody (1-3125 nM) in 100 μl 2% Marvell/PBS was added and incubated for 1 hour on a shaker. After washing, detection was performed with 100 μl 1:5000 rabbit-anti-VHH in 2% Marvell/PBS for 1 hour on a shaker. After washing, anti-VHH antibody was detected with 100 μl 1:5000 DARPO (in 2% Marvell/PBS for 1 hour on a shaker). PO was detected with 100 μl OPD (add 1:1000 H₂O₂ before use). The reaction was stopped with 50 μM H₂SO₄ and absorption was read at 490 nm with a platereader.

[2] = target: T2, rhB7H1-Fc: fusion protein of the extracellular part of human B7-H1 (PD-L1) and mouse Fc gamma 1, R&D Systems … (human; mouse, UniProt Q9NZQ7 19-238); experiment: ELISA, purified Nanobody titrated on coated rhB7H1-Fc (Example 5), OD 490 nm
T2 construct: extracellular domain; Bought product, made in NS0 cells; also called B7-H1 ectodomain; B7H1/hFc
T2 sequence (Q9NZQ7 19-238 limits assumed): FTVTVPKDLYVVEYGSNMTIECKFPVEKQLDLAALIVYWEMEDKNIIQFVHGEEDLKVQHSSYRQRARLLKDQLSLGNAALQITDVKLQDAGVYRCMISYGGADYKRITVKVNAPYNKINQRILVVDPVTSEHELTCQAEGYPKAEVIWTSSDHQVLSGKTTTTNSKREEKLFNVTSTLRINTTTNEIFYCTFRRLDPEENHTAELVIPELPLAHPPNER
Experimental: In short, 5 μg/ml B7-H1 ectodomain (rhB7H1-Fc, R&D Systems, Minneapolis, US, Cat #156-B7) or control Fc was immobilized on maxisorp microtiter plates (Nunc, Wiesbaden, Germany) and free binding sites were blocked using 4% Marvel in. PBS. […] […] Binding specificity was determined based on OD values compared to controls having received no Nanobody (low control). 17 out of the 96 selected clones were able to bind to B7-H1 with some specificity.

[3] = target: T1, rhPDL2-Fc: fusion protein of the …; experiment: ELISA, purified Nanobody titrated on coated PD-L2-Fc (Example 9), OD 490 nm
Experimental: In short, 5 μg/ml PD-L2 ectodomain (R&D Systems, Minneapolis, US, Cat #1224-PL) was immobilized on maxisorp microtiter plates (Nunc, Wiesbaden, Germany) and free binding sites were blocked using 4% Marvel in PBS. Next, 10 μl of periplasmic extract containing Nanobody of the different clones in 100 μl 2% Marvel PBST were allowed to bind to the immobilized antigen. […] Binding specificity was determined based on OD values compared to controls having received no Nanobody (low control). 32 out of the 96 selected clones were able to bind to PD-L2 with some specificity.
Clones were selected for recloning in an expression vector derived from pUC119 which contained the LacZ promoter, a resistance gene for ampicillin or carbenicillin, a multicloning site and the gen3 leader sequence. In frame with the Nanobody® coding sequence, the vector coded for a C-terminal c-myc tag and a (His)6 tag. After expression, the obtained Nanobodies were purified via the His-tag on Talon beads. Purified Nanobodies were tested in ELISA for binding to PD-L2 as described.

[4] = target: T2, rhB7H1-Fc: fusion protein of the …; experiment: ELISA, Nanobody dilution series 1-3125 nM on coated B7H1/hFc, rabbit anti-VHH detection, OD 490 nm (Example 11)
Experimental: as §1, with “PD-L2” for “B7-H1”, “PD-L1” for “PD-L2”, “B7H1/hFc” for “PDL2/hFc”, “#156-B7)” for “#1224-PL)”, “shaker.” for “shaker,”, “μl 1 M” for “μM”

EC50 (read off the curve) [1]: ~30 nM | binding result [2]: binds
B1: 104D7 (VHH)
VHH: EVQLVESGGGLVQAGGSLTISCAASGITFSDSIVSWYRRARGKQREWVAGISNGGTTKYAESVLGRFTISRDNAKNMVYLQMNGLNPEDTAVYLCKVRQYWGQGTQVTVSS
notes: also called anti-B7H1 nanobody 104D7

binding result [1]: no binding (tested: 3125 nM) | binding result [2]: binds
B2: 104F5 (VHH)
VHH: EVQLVESGGGLVQPGGSLRLSCAASGFTLDYYAKCWFRQAPGKEREWVSCISSSDGSTYYADSVKGRFTISRDNAKNTVYLQMNSLKPEDTAVYFCAARHGGPLTVEYFFDYWGQGTQVTVSS
notes: purified via the His-tag; also called anti-B7H1 nanobody 104F5

binding result [3]: binds | binding result [4]: no binding (tested: 3125 nM)
B3: 103D3 (VHH)
VHH: EVQLVESGGGLVEPGGSLRLSCVASGFTFSSYDMSWVRQAPGKGLEWVSTINSGGGITYRGSVKGRFTISRDNAKNTLYLQMNSLKPEDTAVYYCENGGSSYRRGQGTQVTVSS
notes: also called anti-PDL2 nanobody 103D3

binding result [3]: binds | binding result [4]: binds
B4: 103F10 (VHH)
VHH: EVQLVESGGGLVQAGGSLRLSCAASGRTFSSGTMGWFRRAPGKEREFVASIPWSGGRTYYADSVKDRFTISRDNAQNTVFLQMNSLKPEDTAVYYCAFKERSTGWDFASWGQGIQVTVSS
notes: also called anti-PDL2 nanobody 103F10

binding result [1]: binds | binding result [2]: binds
B5: 104B10 (VHH)
VHH: EVQLVESGGGLVQAGGSLRLSCAASGSTFSQYDVGWYRQAPGKQRELVAFSSSGGRTIYPDSVKGRFTFSRDNTKNTVYLQMTSLKPEDTAVYYCKIDWYLNSYWGQGTQVTVSS
notes: also called anti-B7H1 nanobody 104B10

binding result [1]: no binding (tested: 3125 nM)
B6: 104E12 (VHH)
VHH: EVQLVESGGGLVQPGGSLRLSCAASGFTFDYYAIGWFRQAPGKAREGVSCISGGDNSTYYADSVKGRFTISRDNAKNTVYLQMNSLKPEDTAVYYCATGGWKYCSGYDPEYIYWGQGTQVTVSS
notes: also called anti-B7H1 nanobody 104E12

binding result [2]: binds
B7: 104D2 (VHH)
VHH: EVQLVESGGGLVQPGGSLRLSCAASGFTLDYYAIGWFRQAPGKEREWASSISSSDGSTYYADSVKGRFTISRDNAKNTVFLQMNSLKPEDTAVYSCAASQAPITIATMMKPFYDYWGQGTQVTVSS
notes: purified via the His-tag; also called anti-B7H1 nanobody 104D2

binding result [3]: binds | binding result [4]: no binding (tested: 3125 nM)
B8: 103E2 (VHH)
VHH: EVQLVESGGGLVQAGGSLRLSCAASGSTFSNYVSNYAMGWGRQAPGTQRELVASISNGDTTNYADSVKGRFTISRDNAKNTVYLQMNSLKPEDTAVYYCFEHQVAGLTWGQGTQVTVSS
notes: also called anti-PDL2 nanobody 103E2
